Measurements from the supplement of paper PMC9732359.
± gives the uncertainty stated by the source.

Assay: protein stability index of a GFP-peptide fusion (yeast GPS) (PSI 1-4); higher = more stable; sorted into four equal gates, so the index is relative within each strain
Conditions: san1∆
Method in brief: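 The protein stability index of a peptide was calculated by multiplying its read frequency in each gate by that gate's number and adding the products. The peptides were tiled 17-residue stretches of yeast proteins, fused downstream of GFP on a Cherry-expressing plasmid and carried in yeast as a pooled library. Mid-log cultures in leucine-free medium were sorted into four equal gates by GFP/Cherry ratio, and each gate's plasmids were PCR-amplified and Illumina-sequenced.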

In order of rising protein stability index:
1. EVSALVRSLPKEEQPKQ [PRP8]  1.26 ± 0.12
2. ETVFNYRLMIKRLNFSF [GRR1]  1.27 ± 0.12
3. EVQRILIELLTQMDGFD [RPT3]  1.41 ± 0.16
4. FGKKRLDLAGPLLAQLF [RPB2]  1.42 ± 0.15
5. FGNKPAGSTGFSFGQNN [YGR119C/NUP57]  1.46 ± 0.15
6. FHILLKLILEWVAPQES [ECM29]  1.53 ± 0.17
7. ESKSLLNLFSNVLKAPF [SIR4]  1.56 ± 0.21
8. ERLKVPILVTLVSDSEI [POP6]  1.58 ± 0.066
9. ETNLQTFLPPLLLKLAS [ECM29]  1.62 ± 0.063
10. ERLMTWKFKSLIEILRL [RRI2]  1.68 ± 0.088
11. FCPIVEEIVSNSSRFSD [YCS4]  1.68 ± 0.21
12. FDYSVILNSIPAAANLD [YJL039C/NUP192]  1.71 ± 0.079
13. FEGDSNMLICAPTGSGK [BRR2]  1.71 ± 0.14
14. FIFQIIEITNSNDLCSQ [SRB8]  1.71 ± 0.1
15. FIRYDVKTPKKTKYILQ [CSN12]  1.78 ± 0.057
16. ERYYELAFDKLNVPVFQ [ARP7]  1.83 ± 0.1
17. ERHGYIRGIVKQIVHDS [RPL2A]  1.92 ± 0.062
18. ESLVHSALCILKEQELV [BRR2]  1.92 ± 0.14
19. FATNEERQMNFLTNELI [SWI3]  1.96 ± 0.14
20. FGQKGGQAIVVHPDYLY [FAS2]  1.99 ± 0.06
21. FKAIHGSQLRLSEWEEY [YCS4]  2 ± 0.12
22. FGVSFIYAGYDDRYGYQ [PRE9]  2.04 ± 0.19
23. EVIGYIAAGTYGKVYKA [SSN3]  2.17 ± 0.069
24. ESLRGILHVRAQYCYKN [SRP72]  2.18 ± 0.22
25. ETISKLNEYKRETLVKT [SMC2]  2.19 ± 0.062
26. EYALEAVKRGTCAVGVK [PRE6]  2.21 ± 0.13
27. ETRAELSQLCAVPLQIV [RPO21]  2.24 ± 0.21
28. EPTVRIQAVFCLTKFQD [YCG1]  2.28 ± 0.063
29. ESSKALADSLDRCVDPE [DIS3]  2.29 ± 0.21
30. EYQSLMSLKDKLLIQID [SMC1]  2.41 ± 0.2
31. FITNVQSISQNSSSSTP [SWI1]  2.43 ± 0.064
32. EQSVKTQNSRHYMVHEA [LIN1]  2.49 ± 0.089
33. EYLKGSESQLNSTLKKV [YCS4]  2.5 ± 0.2
34. ESENFKIIALQPNEISF [RGR1]  2.54 ± 0.084
35. FDNFLTEEELQAAVPDN [BRN1]  2.54 ± 0.068
36. FANNLKSAISNNFRESD [SIR4]  2.56 ± 0.044
37. FGAKPDENKASATSKPA [YJL041W/NSP1]  2.56 ± 0.057
38. ERSDLLPYLSDTCAVSF [YJR042W/NUP85]  2.59 ± 0.076
39. ETDDNIETVMTQEQFVK [SRB4]  2.6 ± 0.2
40. ESKLKIDPDTKAPNAVV [RPB11]  2.62 ± 0.11
41. FGPKKENRKKDESDSEN [YLR335W/NUP2]  2.62 ± 0.079
42. EQHNLVKKGPVRLPTKV [RPS20]  2.65 ± 0.063
43. FILADAGLEITSDNLLT [RPP1B]  2.65 ± 0.076
44. EQELAHILLTELLAYQF [FAS2]  2.67 ± 0.023
45. EPGHAADQEQAKLIRSA [RPO21]  2.69 ± 0.19
46. EQQKEELTDKLSALNSE [SMC1]  2.73 ± 0.15
47. EVRAISVAKIRFPETMD [RPO21]  2.73 ± 0.079
48. EREEAEKKRAEQENMRK [MED2]  2.75 ± 0.28
49. ESHIDSRNNTLNVTPSK [SIR4]  2.75 ± 0.046
50. EPYARVSGDLNPIHVSR [FAS1]  2.76 ± 0.086
51. ESVELPLTHPELYEEMG [RPT2]  2.78 ± 0.07
52. FDEEFDPFKTSSFNKRS [IRR1]  2.81 ± 0.11
53. FEKNTILQQRSKINSTE [MED4]  2.81 ± 0.07
54. FGYDIPLLDIVLKADRS [YML103C/NUP188]  2.82 ± 0.068
55. EVNREEAIGFIRGSNKF [SMC3]  2.88 ± 0.14
56. EVYNVIASDGSYVNYRH [RPO21]  2.88 ± 0.12
57. FEVLAPKWERVFLFDIE [RRI2]  2.92 ± 0.1
58. FGKTTANLPANSSTSPA [YLR335W/NUP2]  2.96 ± 0.045
59. EVVEVQEETVVEQTAEV [RPS12]  2.97 ± 0.076
60. ENYSAMIFETIVDGKLK [FAS1]  2.98 ± 0.13
61. EVLNRVASRHPSESEHP [YDL116W/NUP84]  2.99 ± 0.084
62. EYINNCKKNTKKCLKLA [POP4]  2.99 ± 0.077
63. FEENDHPNRVLEHLHST [COR1]  3 ± 0.055
64. EPYHFISNYNTKYTDDM [SRB8]  3.01 ± 0.057
65. ETKWDDADEKSSNLYET [YJR042W/NUP85]  3.02 ± 0.13
66. EYWAQRKKKFVLDVDPK [ISW2]  3.03 ± 0.21
67. FISYHDKYLCMLKTCVF [NUT1]  3.03 ± 0.061
68. FKAEKLQIVNQLPANMV [RPC17]  3.03 ± 0.071
69. FIEDLAPEQQVQQFAQL [UBP6]  3.04 ± 0.049
70. ESEKLVTPEDVMTISSL [RPC82]  3.05 ± 0.059
71. FDDNDSGNNYNDINISS [MED2]  3.05 ± 0.038
72. FGSGTQNNNTLGGGGLF [YGR119C/NUP57]  3.07 ± 0.061
73. EQWITIESQMRDLILTE [PRP8]  3.08 ± 0.073
74. FGTGKRLAKKVARRNAD [RPS24A]  3.1 ± 0.04
75. EQKGQMAKKEGTPKTDS [MED4]  3.13 ± 0.19
76. ERKKSIGSQRGRRLSML [DSN1]  3.13 ± 0.098
77. ETKTKKEKIKGLQDEIM [SMC4]  3.13 ± 0.06
78. FEQPSQREEAKKVVKKA [RPL27A]  3.13 ± 0.15
79. EREIKRRKFDPSSSENV [UBP6]  3.14 ± 0.065
80. EVNISSLDAREANFDLI [RPC40]  3.17 ± 0.095
81. EVAKKRSRKTVKAQRPI [RPL24A]  3.18 ± 0.15
82. EQQPEQPQETEEHHEEE [RPT4]  3.2 ± 0.12
83. ETIIFDSELNRALFETK [RRI1]  3.2 ± 0.062
84. ESSHEQEEFVQFLQLDN [ECM29]  3.22 ± 0.16
85. FDSELIHLKQKLSESLD [SMC3]  3.22 ± 0.13
86. FGAKSDEKKDSDSSKPA [YJL041W/NSP1]  3.24 ± 0.07
87. EQTVSAVTEATSTNGDS [RGR1]  3.28 ± 0.083
88. ERSICALGEFADWDPES [YML031W/NDC1]  3.28 ± 0.088
89. ETFSTSAHQSPIMQTQM [SNF2]  3.28 ± 0.062
90. EVTAGEAQDEASLQQQQ [SNF6]  3.29 ± 0.14
91. ESQQQDESLKDEATVPN [SWI3]  3.31 ± 0.15
92. EVNSKKKNKRALPNIEN [BRR2]  3.35 ± 0.088
93. FHTSFSAVVGPNGSGKS [SMC4]  3.35 ± 0.085
94. EQKITEIEDGQDGGVTP [RPO21]  3.37 ± 0.048
95. FAAIPEQGIELEHIDSK [FAS2]  3.39 ± 0.084
96. ESILQMNQGEGEPEAGN [RPC34]  3.46 ± 0.26
97. FKAMEDVIAWKNVLANS [ITC1]  3.55 ± 0.078
